# Measured values: patent US20100278801A1 (published 2010)
# What was measured:
# 120-G564S/320.1 [1] = assay: Eu-ligand binding
# [2] = target: HFD300.1 (HFD300-132K) Wild Type; assay: Eu-ligand saturation binding
# HFD300.1 = assay: 125I-ligand binding
# 120-G564S/320.1 [3] = assay: biotin-ligand binding
binder,measurement,setting,value
EU-EGF (ligand) NSDSECPLSHDGYCLHDGVCMYIEALDKYACNCVVGYIGERCQYRDLKWWELR,Kd,120-G564S/320.1 [1],0.877 nM
Eu-NRG1β1 (ligand) SHLVKCAEKEKTFCVNGGECFMVKDLSNPSRYLCKCPNEFTGDRCQNYVMASFYKHLGIEFMEAE,Kd,[2],3.11 nM
NRG1β (ligand) SHLVKCAEKEKTFCVNGGECFMVKDLSNPSRYLCKCPNEFTGDRCQNYVMASFYKHLGIEFMEAE,Kd,HFD300.1,12.1 nM
HB-EGF-biotin (ligand) DLQEADLDLLRVTLSSKPQALATPNKEEHGKRKKKGKGLGKKRDPCLRKYKDFCIHGECKYVKELRAPSCICHPGYHGERCHGLSL,Kd,120-G564S/320.1 [3],0.211 nM
